Results on 4 molecules are retold here after patent US20130143227A1 (University of Texas, published 2013).

T1: Myc-LGR4 (mouse LGR4, predicted mature form aa23-951, N-terminal Myc tag), expressed on HEK293 cells (mouse, UniProt A2ARI4 23-951)
T1 construct: range 23-951
T1 sequence: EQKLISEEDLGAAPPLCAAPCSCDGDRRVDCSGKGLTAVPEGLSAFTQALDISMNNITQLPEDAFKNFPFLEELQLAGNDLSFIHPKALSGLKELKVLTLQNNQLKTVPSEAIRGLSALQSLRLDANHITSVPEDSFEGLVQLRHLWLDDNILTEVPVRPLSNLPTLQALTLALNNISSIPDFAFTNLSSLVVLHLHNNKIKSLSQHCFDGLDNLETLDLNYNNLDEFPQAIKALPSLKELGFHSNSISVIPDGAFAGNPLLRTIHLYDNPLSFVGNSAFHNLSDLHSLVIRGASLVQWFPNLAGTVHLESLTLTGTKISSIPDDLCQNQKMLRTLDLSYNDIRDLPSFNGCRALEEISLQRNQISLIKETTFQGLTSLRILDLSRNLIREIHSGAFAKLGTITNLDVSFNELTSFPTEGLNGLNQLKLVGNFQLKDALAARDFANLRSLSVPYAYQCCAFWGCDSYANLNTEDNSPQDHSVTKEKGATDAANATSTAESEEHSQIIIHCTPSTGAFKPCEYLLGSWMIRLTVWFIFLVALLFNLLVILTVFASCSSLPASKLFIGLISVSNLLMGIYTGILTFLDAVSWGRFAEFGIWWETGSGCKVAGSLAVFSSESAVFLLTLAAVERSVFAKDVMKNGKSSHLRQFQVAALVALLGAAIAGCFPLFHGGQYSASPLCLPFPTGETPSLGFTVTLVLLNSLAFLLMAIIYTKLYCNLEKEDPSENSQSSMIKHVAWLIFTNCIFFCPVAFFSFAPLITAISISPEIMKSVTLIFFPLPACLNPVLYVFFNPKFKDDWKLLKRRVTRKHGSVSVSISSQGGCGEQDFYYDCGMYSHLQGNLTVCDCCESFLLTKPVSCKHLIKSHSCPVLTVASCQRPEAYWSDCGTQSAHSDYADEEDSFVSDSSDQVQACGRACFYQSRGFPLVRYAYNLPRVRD

T2: Myc-LGR5 (human LGR5, predicted mature form aa21-907, N-terminal Myc tag), expressed on HEK293 cells (human, UniProt O75473 22-907)
T2 construct: Residues 21-907 are counted on NP-003658
T2 sequence: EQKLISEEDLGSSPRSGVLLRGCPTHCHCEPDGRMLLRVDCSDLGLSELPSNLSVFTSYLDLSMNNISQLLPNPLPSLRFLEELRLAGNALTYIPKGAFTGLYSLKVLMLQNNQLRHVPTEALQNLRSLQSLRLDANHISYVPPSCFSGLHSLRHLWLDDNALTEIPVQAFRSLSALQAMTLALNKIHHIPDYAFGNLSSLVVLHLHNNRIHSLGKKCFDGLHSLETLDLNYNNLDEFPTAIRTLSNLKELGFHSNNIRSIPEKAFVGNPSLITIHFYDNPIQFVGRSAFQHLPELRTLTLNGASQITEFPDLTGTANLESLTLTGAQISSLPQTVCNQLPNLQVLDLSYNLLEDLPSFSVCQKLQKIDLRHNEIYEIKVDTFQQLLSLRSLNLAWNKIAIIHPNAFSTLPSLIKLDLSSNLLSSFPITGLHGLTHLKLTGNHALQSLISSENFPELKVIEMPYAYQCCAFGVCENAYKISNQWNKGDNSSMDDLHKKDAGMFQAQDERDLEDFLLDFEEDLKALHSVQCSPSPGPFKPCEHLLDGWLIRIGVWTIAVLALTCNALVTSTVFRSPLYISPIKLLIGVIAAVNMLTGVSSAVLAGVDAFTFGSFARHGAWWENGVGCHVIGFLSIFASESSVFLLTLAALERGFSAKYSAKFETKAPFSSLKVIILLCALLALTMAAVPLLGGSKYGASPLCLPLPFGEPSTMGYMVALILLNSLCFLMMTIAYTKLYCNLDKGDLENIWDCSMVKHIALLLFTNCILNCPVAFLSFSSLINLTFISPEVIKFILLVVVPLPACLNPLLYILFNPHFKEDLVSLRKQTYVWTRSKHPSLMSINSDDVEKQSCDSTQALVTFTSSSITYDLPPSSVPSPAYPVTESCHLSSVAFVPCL

B1: recombinant human RSPO1 (ligand, UniProt Q2MKA7 21-263, looked up)
chain: SRGIKGKRQRRISAEGSQACAKGCELCSEVNGCLKCSPKLFILLERNDIRQVGVCLPSCPPGYFDARNPDMNKCIKCKIEHCEACFSHNFCTKCKEGLYLHKGRCYPACPEGSSAANGTMECSSPAQCEMSEWSPWGPCSKKQQLCGFRRGSEERTRRVLHAPVGDHAACSDTKETRRCTVRRVPCPEGQKRRKGGQGRRENANRNLARKESKEAGAGSRRRKGQQQQQQQGTVGPLTSAGPA
notes: Bought from R&D Systems; also called R-spondin 1
B2: recombinant human RSPO3 (ligand)
chain: QNASRGRRQRRMHPNVSQGCQGGCATCSDYNGCLSCKPRLFFALERIGMKQIGVCLSSCPSGYYGTRYPDINKCTKCKADCDTCFNKNFCTKCKSGFYLHLGKCLDNCPEGLEANNHTMECVSIVHCEVSEWNPWSPCTKKGKTCGFKRGTETRVREIIQHPSAKGNLCPPTNETRKCTVQRKKCQKGERGKKGRERKRKKPNKGESKEAIPDSKSLESSKEIPEQRENKQQQKKRKVQDKQKSVSVSTVH
notes: Bought from R&D Systems; also called R-spondin 3
B3: recombinant human RSPO4 (ligand)
chain: LNRRKKQVGTGLGGNCTGCIICSEENGCSTCQQRLFLFIRREGIRQYGKCLHDCPPGYFGIRGQEVNRCKKCGATCESCFSQDFCIRCKRQFYLYKGKCLPTCPPGTLAHQNTRECQGECELGPWGGWSPCTHNGKTCGSAWGLESRVREAGRAGHEEAATCQVLSESRKCPIQRPCPGERSPGQKKGRKDRRPRKDRKLDRRLDVRPRQPGLQP
notes: Bought from R&D Systems; also called R-spondin 4
B4: recombinant human RSPO2 (ligand, UniProt Q6UXX9 22-243, looked up)
chain: QGNRWRRSKRASYVSNPICKGCLSCSKDNGCSRCQQKLFFFLRREGMRQYGECLHSCPSGYYGHRAPDMNRCARCRIENCDSCFSKDFCTKCKVGFYLHRGRCFDECPDGFAPLEETMECVEGCEVGHWSEWGTCSRNNRTCGFKWGLETRTRQIVKKPVKDTILCPTIAESRRCKMTMRHCPGGKRTPKAKEKRNKKKKRKLIERAQEQHSVFLATDRANQ
notes: Bought from R&D Systems; also called R-spondin 2

In one test the target is T1, Myc-LGR4 (mouse LGR4, predicted mature …). Put plainly: whole-cell fluorescence competition binding, displacement of mRSPO1-Fc (~5 nM) from HEK293 cells expressing Myc-LGR4. The protocol: (§1) A fluorescence-based whole-cell competition binding assay was developed to determine whether purified, recombinant RSP01-4 could compete with mRSPO1-Fc for binding to LGR4-6. HEK293 cells stably expressing Myc-LGR4, Myc-LGR5, or FLAG-LGR6 were seeded into poly-D-lysine-coated 96-well black/clear bottom plates (Becton Dickinson) at ˜60,000 cells/well. After overnight culturing, the plates were chilled on ice for 5 min, media were removed from each well, and the cells were washed twice with cold PBS. The recombinant RSPOs under investigation were diluted in 3-fold serial dilutions in cold OPTI-MEM®+0.5% BSA and added onto the cells at 50 μl/well, followed immediately by the addition of equal volume of mRSPO1-Fc diluted by 1:100 in the same buffer. The cells were the incubated for 3.5 hrs at 4° C. with gentle agitation, followed by three quick washes with cold PBS. The cells were then fixed in 4% paraformaldehyde/PBS for 15 min at room temperature and washed 3× with PBS. The cells were further incubated with Alexa Fluor® 647-labeled goat anti-mouse IgG (H+L) (Invitrogen, diluted by 1:200) in OPTI-MEM®+0.5% BSA for 1 hr at room temperature. The cells were washed thrice with PBS and fluorescence intensity was measured using a Tecan M1000 plate reader with excitation at 630 nm and emission at 670 nm. All experiments were performed at least twice with quadruplicate replicates in each experiment. HEK293 cells stably expressing Myc-LGR4 (shown in FIG. 4B), Myc-LGR5 (shown in FIG. 4C), or FLAG-LGR6 (shown in FIG. 4D) were incubated with mRSPO1Fc at ˜5 nM plus serial dilutions of purified recombinant RSPO1-4 for 3-4 hrs at 4° C. Binding of mRSPO1-Fc was detected with Alexa Fluor® 647-labeled anti-mouse IgG. Maximum specific binding is defined by the difference between the data of with and without mRSPO1-Fc which is approximately 50% of total binding in general. All error bars are S.E.M. (n=4). […] As shown in FIGS. 4B-D, RSPO1-4 were able to completely displace the binding of mRSPO1-Fc to LGR4-6 with IC50's in the nM range, the one exception was the μM IC50's for RSPO3 (SEQ ID NO:46; SEQ ID NO:47) and RSPO4 (SEQ ID NO:48; SEQ ID NO:49) binding to LGR4.
With B1, the IC50 was 25 nM.

On to B2, for which the IC50 is 126 nM.

For B3, the IC50 is 228 nM.

Take B4: the IC50 was 2.3 nM.

A further test deals with T2, Myc-LGR5 (human LGR5, predicted mature …). Put plainly: whole-cell fluorescence competition binding, displacement of mRSPO1-Fc (~5 nM) from HEK293 cells expressing Myc-LGR5. The procedure:
as §1
B1: the IC50 is 4 nM.

Regarding B2, the IC50 is 2.1 nM.

Take B3: the half-maximal inhibitory concentration (IC50) is 11 nM.

Take B4: the IC50 was 0.5 nM.

One may read the IC50 as the concentration at which inhibition is half-maximal.
